Patent US20160031942A1 (LONDON HEALTH SCIENCES CENTRE RESEARCH, published 2016)
Square brackets hold non-standard residues; d marks the D form. Ends that are not written are not given here. * marks the point of attachment. FITC = O=C1OC2(c3ccc(O)cc3Oc3cc(O)ccc32)c2ccc(NC(=S)*)cc21; Ahx = NCCCCCC(=O)O

Tests used:
[1] = biological target: T1, Recombinant protein RHAMM-CT (truncated RHAMM, carboxy terminus containing the HA binding domain, amino acids … (Mus musculus (Mouse), UniProt Q00547 706-766)); experiment: solid phase peptide binding assay (ELISA), immobilised RHAMM
T1 construct: Expressed in E. coli BL21 from pPAL7-RHAMM as eXact-tagged protein and purified on Profinity eXact resin (fluoride elution); M.W. 7.1 kDa, pI 10.1; also called recombinant RHAMM
T1 sequence: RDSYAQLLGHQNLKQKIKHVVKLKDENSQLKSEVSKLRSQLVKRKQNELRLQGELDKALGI

[2] = biological target: T2, Recombinant protein RHAMM-CT (truncated RHAMM, carboxy terminus containing the HA binding domain, amino acids … (UniProt Q00547 706-766)); experiment: SPR
T2 chain: T1 sequence

[3] = biological target: T2, Recombinant protein RHAMM-CT (truncated …); experiment: SPR
[4] = biological target: T1, Recombinant protein RHAMM-CT (truncated …); experiment: SPR (GWC SPRimager II), thiol-containing peptide immobilised on maleimide chip, RHAMM injected at 500, 750, 1000 nM, 1:1 Langmuir fit
Method: After peptide screening, GWC SPRimager®II system was used to determine binding kinetic constants. Thiol-containing peptides at 1 nM concentration in milliQ water were immobilized on a maleimide-functionalized gold-plated chip for 3 hours. Excess peptides were removed by washing with milliQ water. For binding studies, a series of concentrations (500 nM, 750 nM, and 1000 nM) of RHAMM were injected over the immobilized peptides. After a 15 min dissociation phase, the sensor chip surface was regenerated for the next peptide sample injection, via treatment with two 10 min pulse injections of regenerating buffer (2 M NaCl in HBS-EP, pH 7.4) at […]. Baseline returned to the initial value after the regeneration step, confirming the removal of all bound analytes. Data were analyzed and the corresponding dissociation constants (KD) were obtained via non-linear regression fitting to a Langmuir binding model. In all experiments, reference subtraction was performed using data obtained from reference plate (no peptide) and peptide functionalized plate.

[5] = biological target: T1, Recombinant protein RHAMM-CT (truncated …); experiment: ELISA, fluorescein-labelled peptide on immobilised RHAMM
Method: ELISA was carried out to test the ability of FITC-labelled tubulin-derived peptides compete with HA for binding site with RHAMM. Recombinant RHAMM (100 μL, 10 μg/mL in 0.05M PBS, pH=9) was immobilized on 96-well ELISA plates (final concentration of 1 μg/well) and incubated overnight at 4° C. resulting in final amount of protein 1 μg/well. Plates were washed three times with (0.05%) PBS-Tween-20 buffer (200 μL/well), washed with blocking buffer (5% 200 μL/well, PBS-Tween-20 per well), and incubated for 1 hour at room temperature. Following three washes as described above, FITC-labeled tubulin derived peptides (final concentration of 1 μg/mL) and HA (100 μL/well, M.W. 220 kDa, 10 μg/mL in PBS, serial dilutions have been made for HA=1:1, 1:2, 1:4, 1:8, 1:16) were added to plates and incubated overnight at 4° C. Plates were washed as described above, and absorbance was measured at 485/535 nm.
A competitive ELISA was done to determine the selectivity of the peptides to the HA binding domain of RHAMM. In this assay, fluorescein-labelled peptides were used and the effectiveness of unlabelled HA to block the binding of peptides to RHAMM was evaluated. Fluorescein-labelled peptides SEQ ID NOs: 1, 3, 9, 11, 12 and 14, corresponding to peptides 1c, 3c, 9c, 11c, 12c and 14c in FIG. 2B (SEQ ID NOs: 25, 27, 29, 31, 33 and 35) were added to ELISA plates containing immobilized RHAMM, followed by the addition of varying concentration of HA, which is the natural ligand of RHAMM. A decrease in observed fluorescence is seen as HA displaces the fluorescein-labelled peptides if they compete for the same binding site.

[6] = biological target: T3, RHAMM (Receptor for Hyaluronic Acid Mediated Motility, CD168) expressed on human cancer cells (human, UniProt O75330 1-724); experiment: cell-based or functional assay
T3 sequence (looked up): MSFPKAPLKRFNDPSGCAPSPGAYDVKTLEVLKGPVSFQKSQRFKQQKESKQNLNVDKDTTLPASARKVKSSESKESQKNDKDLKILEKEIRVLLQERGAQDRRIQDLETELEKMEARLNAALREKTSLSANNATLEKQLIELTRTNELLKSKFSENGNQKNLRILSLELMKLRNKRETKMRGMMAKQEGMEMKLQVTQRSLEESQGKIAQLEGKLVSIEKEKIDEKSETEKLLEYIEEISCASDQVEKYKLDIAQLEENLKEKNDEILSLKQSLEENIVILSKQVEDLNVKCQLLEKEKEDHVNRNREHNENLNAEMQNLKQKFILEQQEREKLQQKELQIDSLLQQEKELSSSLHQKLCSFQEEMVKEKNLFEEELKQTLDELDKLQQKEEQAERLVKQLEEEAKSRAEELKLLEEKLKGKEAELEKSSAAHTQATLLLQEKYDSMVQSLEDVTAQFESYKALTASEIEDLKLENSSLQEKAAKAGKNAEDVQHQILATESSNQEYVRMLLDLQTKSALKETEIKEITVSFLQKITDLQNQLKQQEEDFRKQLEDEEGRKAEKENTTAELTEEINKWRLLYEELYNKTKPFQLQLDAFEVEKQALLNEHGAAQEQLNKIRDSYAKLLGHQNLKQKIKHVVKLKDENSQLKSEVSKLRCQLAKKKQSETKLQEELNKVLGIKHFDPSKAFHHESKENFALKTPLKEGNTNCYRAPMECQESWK

[7] = biological target: T1, Recombinant protein RHAMM-CT (truncated …); experiment: SPR-based screening (FIG. 3B legend)
Method: ProteON XPR36 system was used for the selection and ranking of different tubulin derived peptides against RHAMM. For immobilization of RHAMM, the ProteON GLC sensor chip surfaces were activated by amine coupling using 100 mM EDAC and 24 mM sulfo-NHS. RHAMM (30 μg/mL in sodium bicarbonate buffer, pH 9.7) was injected at a flow a rate of 30 μl/min. A buffer sample was injected on a different sensor plate for use as a reference. Ethanolamine HCl (1M, pH 8.5) was then injected to deactivate any remaining surface groups. Peptides (10 μM in PBS-T, 2% DMSO) were injected to a RHAMM functionalized surface at 50 μL/min for 3 minutes followed by a 10 minute dissociation (i.e. injection of PBS-T buffer) period. The surfaces were regenerated using two injections of 30 μL of 1M NaCl prior to the injection of the next peptide. In all experiments, reference subtraction was performed using data obtained from reference plate (No RHAMM) and RHAMM functionalized plate.
After immobilization of RHAMM on the SPR sensor chip, injection of a series of tubulin derived peptides was carried out. Association of the peptides with RHAMM proceeded for 3 minutes and the dissociation in analyte free buffer was carried out for 10 minutes. […] For each peptide injection, control sensograms (no immobilized RHAMM and buffer injection) were subtracted from the test sensograms, and the chip surface was regenerated prior to the next peptide injection in order to remove any remaining bound peptides.

[8] = biological target: T2, Recombinant protein RHAMM-CT (truncated …); experiment: SPR; RHAMM 500 nM
[9] = biological target: T2, Recombinant protein RHAMM-CT (truncated …); experiment: SPR; RHAMM 750 nM
[10] = biological target: T2, Recombinant protein RHAMM-CT (truncated …); experiment: SPR; average
[11] = biological target: T2, Recombinant protein RHAMM-CT (truncated …); experiment: SPR; RHAMM 1000 nM

B1: peptide 3c (SEQ ID NO: 27), fluorescein-conjugated SEQ ID NO: 3 (peptide)
peptide: {FITC-Ahx}-SVEAEAEEGEEY-NH2
binding result [1]: binds

B2: 13 (peptide)
chain: SNMNDLVSEYQQ
Kd [2]: < 1000 nM

B3: 17 (peptide)
chain: DNPDEMDTSREI
Kd [2]: < 1000 nM

B4: SEQ ID NO 2 (tubulin-derived peptide containing the DEXEEZ motif) (peptide)
peptide: DSADGEDEGEEY
Kd [3]: < 1000 nM

B5: peptide 1b (SEQ ID NO: 24), SEQ ID NO: 1 with N-acetyl cysteine modified N-terminus (peptide)
peptide: Ac-C[Ahx]VEGEGEEEGEEY-NH2
Kd [4]: 24 nM

B6: SEQ ID NO 10 (tubulin-derived peptide containing the EEXEDZ motif) (peptide)
peptide: GEFEEEEGEDEA
Kd [2]: < 1000 nM

B7: peptide 1c (SEQ ID NO: 25), fluorescein-conjugated SEQ ID NO: 1 (peptide)
peptide: {FITC-Ahx}-VEGEGEEEGEEY-NH2
binding result [5]: binds | reduction in cellular fluorescence (uptake in MDA-MB-231 cells) when cells are blocked with anti-RHAMM mAb [6]: ~85%

B8: 7 (peptide)
chain: GEFSEAREDMAA
Kd [3]: 180 nM

B9: peptide 11c (SEQ ID NO: 31), fluorescein-conjugated SEQ ID NO: 11 (peptide)
peptide: {FITC-Ahx}-GEFEEEAEEEVA-NH2
binding result [1]: binds

B10: peptide 9a (SEQ ID NO: 9), unmodified tubulin-derived peptide, beta-Ia CTT (peptide)
peptide: EEDFGEEAEEEA-NH2
notes: Synthetic 12-mer made on Rink amide MBHA resin
Kd [3]: 32 nM | binding result [7]: binds

B11: peptide 9c (SEQ ID NO: 29), fluorescein-conjugated SEQ ID NO: 9 (peptide)
peptide: {FITC}-[Ahx]EEDFGEEAEEEA-NH2
notes: also called fluorescein-conjugated HA mimetic
binding result [5]: binds | reduction in cellular fluorescence (uptake in MDA-MB-231 cells) when cells are blocked with anti-RHAMM mAb [6]: ~76%

B12: 6 (peptide)
chain: LEKDYEEVGVDS
Kd [3]: 330 nM

B13: peptide 12a (SEQ ID NO: 12), unmodified tubulin-derived peptide (peptide)
peptide: EAFEDEEEEIDG-NH2
notes: as for B10
binding result [7]: binds | Kd [2]: 211 nM | Kd [8]: 217 nM | Kd [9]: 215 nM | Kd [10]: 211 nM | Kd [11]: 201 nM

B14: 5 (peptide)
chain: DSFEEENEGEEF
Kd [3]: < 1000 nM

B15: peptide 3a (SEQ ID NO: 3), unmodified tubulin-derived peptide, alpha-IIIc CTT (peptide)
peptide: SVEAEAEEGEEY-NH2
notes: as for B10
Kd [3]: 331 nM | binding result [7]: binds | Kd [8]: 310 nM | Kd [9]: 325 nM | Kd [10]: 331 nM | Kd [11]: 358 nM

B16: peptide 9b (SEQ ID NO: 28), SEQ ID NO: 9 with N-acetyl cysteine modified N-terminus (peptide)
peptide: Ac-C[Ahx]EEDFGEEAEEEA-NH2
Kd [4]: 32 nM | Kd [9]: 33.8 nM

B17: peptide 11a (SEQ ID NO: 11), unmodified tubulin-derived peptide, beta-IV CTT (peptide)
peptide: GEFEEEAEEEVA-NH2
notes: as for B10
binding result [7]: binds | Kd [2]: 130 nM | Kd [8]: 126 nM | Kd [9]: 145 nM | Kd [10]: 130 nM | Kd [11]: 120 nM

B18: SEQ ID NO 4 (tubulin-derived peptide containing the DEXEEZ motif) (peptide)
peptide: IDSYEDEDEGEE
Kd [3]: < 1000 nM

B19: 15 (peptide)
chain: RPDYISWGTQEQ
Kd [2]: < 1000 nM

B20: 8 (peptide)
chain: FVHWYVGEGMEE
Kd [3]: 176 nM

B21: peptide 1a (SEQ ID NO: 1), unmodified tubulin-derived peptide, alpha-Ia CTT (peptide)
peptide: VEGEGEEEGEEY-NH2
notes: Synthetic 12-mer made on Rink amide MBHA resin; also called ala-CTT
Kd [3]: 24 nM | binding result [7]: binds

B22: peptide 14b (SEQ ID NO: 34), SEQ ID NO: 14 with N-acetyl cysteine modified N-terminus (peptide)
peptide: Ac-C[Ahx]FTEAESNMNDLV-NH2
Kd [4]: 30 nM | Kd [9]: 29 nM | Kd [11]: 31.9 nM

B23: peptide 14c (SEQ ID NO: 35), fluorescein-conjugated SEQ ID NO: 14 (peptide)
peptide: {FITC-Ahx}-FTEAESNMNDLV-NH2
binding result [5]: binds | reduction in cellular fluorescence (uptake in MDA-MB-231 cells) when cells are blocked with anti-RHAMM mAb [6]: ~65%

B24: 16 (peptide)
chain: VQQLIDEYHAAT
Kd [2]: < 1000 nM
